The supplement of paper PMC9170038

Test system: MS2 coat protein
Experiment: apparent KD of MS2 coat protein; designed switch direction (-1 OFF switch, 1 ON switch): -1; higher = weaker reporter binding
How it was run: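 Stalled E. coli RNA polymerase transcribed designed RNA switches on Illumina chips, which were then titrated with SNAP-549-labelled MS2 coat protein, doubling from 0.7 or 1.5 nM to 3 µM. Steps lasted from 0.8–1.5 h at the lowest concentration to 10–20 min at the highest. The apparent KD is each design's median over clusters of curve-fitted normalised fluorescence.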

[1] = input ligand: microRNA oligo, concentration not stated
[2] = Eterna round: R95, input ligand: microRNA oligo, concentration not stated
[3] = Eterna round: R95, input ligand: FMN 200 uM
[4] = Eterna round: R95, input ligand: none

Row | Sequence | apparent KD of MS2 coat protein (input ligand: FMN 200 uM) | apparent KD of MS2 coat protein (input ligand: none) | apparent KD of MS2 coat protein [2] | also measured
1 | CCUAUGUGAGGAUAUCACUGGUCUUUUCAUUAGAUGAUCAGUGAGAAGGCACAUGAGGAUCACCCAUGUCAGUG [Ex4 - 3 - 53] (Eterna round: R96, puzzle: Exclusion 4) | 48 nM | 110 nM | – | apparent KD of MS2 coat protein [1]: 59.7 nM
2 | CCUAUGUGAGGAUAUCACUGGUCUUUUCAUUAGAUGAUCAGUGAGAAGGCACAUGAGGAUCACCCAUGUCAGUG [Ex4 - 3 - 53] (puzzle: Exclusion 4) | – | – | 71.8 nM | –
3 | CCUAUGUUAGGAUAUUGCUCUCAGCCGUAGGAGGACAUGACCGAGAAGGAACAUGAGGAUCACCCAUGUGUAUU [Eternabot (L2) Solution 53] (Eterna round: R97, puzzle: Exclusion 4) | 17.4 nM | 24 nM | – | –
4 | CCUCAACAGGUCAGGAUAUACCCAACGGCGGACGGGUAGAAGGGACAUGAGGAUCACCCAUGUCCAGAGGUGAG [Eternabot (Original) Solution 11] (Eterna round: R97, puzzle: Brourd's mod of Exclusion 4) | 45.5 nM | 16.9 nM | – | –
5 | CCUCAACAGUAGGAUAUCAUCAAACUAUUGUGAUGAGAAGGACUGACAUGAGGAUCACCCAUGUUAACGUGAUG [Exclusion 6 - 6:c] (puzzle: Exclusion 6) | – | – | 21 nM | apparent KD of MS2 coat protein [3]: 70.8 nM; apparent KD of MS2 coat protein [4]: 20.4 nM
6 | CCUCAACAGUAGGAUAUCAUCAAACUAUUGUGAUGAGAAGGACUGACAUGAGGAUCACCCAUGUUAACGUGAUG [Mod of Brourd - Jieux - Exclusion 6] (Eterna round: R97, puzzle: Exclusion 6) | 176 nM | 35.8 nM | – | –
7 | CCUCACAGAGGAUAUACGUCCACUGAACCCAUGAGGUUGCCACAUGAGGAUCACCCAUGUAGAAGGCUGUGCUG [Mageanma] (puzzle: Exclusion 2) | – | – | 18.9 nM | –
8 | CCUCCACAGGAGGAUAUCAUCAAACUAUUGUGAUGAGAAGGCCUGACAUGAGGAUCACCCAUGUUAACGUGAUG [Mod of Brourd 8 - Jieux - Exclusion 6] (Eterna round: R97, puzzle: Exclusion 6) | 209 nM | 58.1 nM | – | –
9 | CCUCCACAUGAGGAUCACCCAUGUCAGGAUAUCGUGUGCGCGUUUUCGGUCUUUCGCGCGAGAAGGGACGACUG (Eterna round: R96, puzzle: Exclusion 1) | 32 nM | 30.2 nM | – | apparent KD of MS2 coat protein [1]: 22.5 nM
10 | CCUCCACAUGAGGAUCACCCAUGUCAGGAUAUCGUGUGCGCGUUUUCGGUCUUUCGCGCGAGAAGGGACGACUG (puzzle: Exclusion 1) | – | – | 24.7 nM | –
11 | CCUCCACAUGAGGAUCACCCAUGUCAGGAUAUCGUGUGCGCGUUUUCGGUCUUUCGUGCGAGAAGGGACGUCUG (puzzle: Exclusion 1) | – | – | 32.6 nM | –
12 | CCUCCACAUGAGGAUCACCCAUGUCAGGAUAUCGUGUGUUUUUUUUCGGCCGCGCGUGCGAGAAGGGACGUCUU (puzzle: Exclusion 1) | – | – | 19.1 nM | –
13 | CCUCCCGCCGUCAGGAUAUGCCGUACCGCUGCGCUCCAGAAGGCACUUGAGGAUCACCCAAGUACCCGUGAGGC [salish99_bmod_ex4_r4_009] (Eterna round: R97, puzzle: Brourd's mod of Exclusion 4) | 16 nM | 16.1 nM | – | –
14 | CCUCGACAUGAGGAUCACCCAUGUCAGGAUAUUGUGUAUCGGGUUUUUUACCGAAAGGCGAGAAGGGAUGUGUG [LRO-Excl1-11] (puzzle: Exclusion 1) | – | – | 15 nM | –
15 | CCUCGACAUGAGGAUCACCCAUGUCAGGAUAUUGUGUAUCGGGUUUUUUACGGAAAGGCGAGAAGGGAUGUGUG [LRO-Excl1-10] (puzzle: Exclusion 1) | – | – | 15.5 nM | –
16 | CCUCGGUCAGGAUAUGGGCCAUGCGAUGAUGAAGCCUGGCGCCAGAAGGGACAUGAGGAUCACCCAUGUCCGUA [Eternabot (Original) Solution 37] (Eterna round: R97, puzzle: Exclusion 4) | 71.3 nM | 17.2 nM | – | –
17 | CCUCUAACCUAGGAUAUAGGUAGACCUAGUCGCCUAGAAGGAGGUACAUGAGGAUCACCCAUGUAUAUUGGGCU [Inmaor] (puzzle: Exclusion 6) | – | – | 173 nM | –

Row | Sequence | apparent KD of MS2 coat protein (input ligand: FMN 200 uM) | apparent KD of MS2 coat protein (input ligand: none) | apparent KD of MS2 coat protein [2] | also measured
18 | CCUCUACAUGAGGAUCACCCAUGUGAGGAUAUCAGUGCAAAAGGCACGUAAUAAAUCGUGAGAAGGCACAUGGG [EX1 A.15] (Eterna round: R97, puzzle: Exclusion 1) | 24 nM | 112 nM | – | –
19 | CCUCUAUUUGUGAGGAUAUCGGUAAACUGGAUUGUCGAGAAGGCACAUGAGGAUCACCCAUGUAUUGAACAGCA [JR_BMEx4_Sub021] (Eterna round: R97, puzzle: Brourd's mod of Exclusion 4) | 203 nM | 31.2 nM | – | –
20 | CCUCUGUCAGGAUAUCGUGCAUACAACGAAAGUUCUAUGUGCGAGAAGGGACAUGAGGAUCACCCAUGUUUGCG [Omei Ex4 A21] (Eterna round: R97, puzzle: Exclusion 4) | 225 nM | 62.5 nM | – | –
21 | CCUCUGUUAGGAUAUCAAACACUAUCUGCUCCAGAGUUAAGUGAGAAGGGACAUGAGGAUCACCCAUGUAAAAU [Isreusraar] (puzzle: Exclusion 4) | – | – | 26.2 nM | –
22 | CCUGCACAUGAGGAUCACCCAUGUCAGGAUAUCUCGCCGUCGGCUUGCCGACGGUAUUAGAGAAGGGACAAGGG [JL Tixe mod 2] (puzzle: Exclusion 1) | – | – | 21.9 nM | –
23 | CCUGUGUGAGGAUAUGGUGUUGGCCAAAAGGAAUAGCUCCUCCAGAAGGCACAUGAGGAUCACCCAUGUCGUGG [Jolly's Folly 23 - Jieux - Exclusion 4] (Eterna round: R96, puzzle: Exclusion 4) | 138 nM | 60.2 nM | – | apparent KD of MS2 coat protein [1]: 50.3 nM
24 | CCUUUGUCAGGAUAUCAGAACACGCCCGUAGGGAGUGCAAAUGAGAAGGGACAUGAGGAUCACCCAUGUACAGA [Leonveti] (puzzle: Exclusion 4) | – | – | 29.4 nM | –
25 | CGAAAGGUAGGAUAUACGAAGAAAAAGGGUAGAAGAAGAACACAUGAGGAUCACCCAUGUAGAAGGACCAAAGC [Mat - Exclusion 2 - Mod of my Tesla design - D16] (puzzle: Exclusion 2) | – | – | 22.1 nM | apparent KD of MS2 coat protein [3]: 65.1 nM; apparent KD of MS2 coat protein [4]: 20.5 nM
26 | CGAACCCGAGGAUAUCGUAAACCCGACAUGAGGAUCACCCAUGUCAUCCUCACGGCGCCACGAGAAGGCGGUGUUU [Leinat] (puzzle: Exclusion 5) | – | – | 43.7 nM | –
27 | CGAAGUACGUAAGGAUAUACCGUGAGGACAACGGUAGAAGGUACAACAACAUGAGGAUCACCCAUGUGGACCUCUCGGCGUUGU [Eternabot solution 19] (Eterna round: R96, puzzle: Exclusion NG 1) | – | – | – | apparent KD of MS2 coat protein [1]: 309 nM
28 | CGAAUUAUAGGAUAUACAUGAGGAUCACCCAUGUAACCGUGACUGGGAUGCGUCUCAAGUAGAAGGAUAGGCGC [Eternabot (L1) Solution 9] (Eterna round: R97, puzzle: Exclusion 3) | 27.2 nM | 14.3 nM | – | –
29 | CGACGUAAAGGAUAUACAUGAGGAUCACCCAUGUCCCUACAAUGAGUAGGUACACGCAGUAGAAGGUUACUUCG [Eternabot (Original) Solution 15] (Eterna round: R97, puzzle: Exclusion 3) | 107 nM | 37 nM | – | –
30 | CGACUGUGAGGAUAUGGUGAGUAGUGCCUGAGCGCUGCUCACCAGAAGGCACAUGAGGAUCACCCAUGUAUAGC [Mat - Exclusion 4 - Mod of JL - D9] (puzzle: Exclusion 4) | – | – | 31.7 nM | –
31 | CGAGCUUUUUGCUCGUCUUACAUGAGGAUCACCCAUGUCAAACAAACAAACAAACGAAAGUUUGUUUGUUUGUUUGA [Mod of sellena 2] (Eterna round: R97, puzzle: Sensor, turn-off variant 1) | 29.4 nM | 30 nM | – | –
32 | CGAUAAAAGUGAGGAUAUGAGGAGAGAGAGAGAUCAGAAGGCACACAUGAGGAUCACCCAUGUGAGUUCUCGAAAUUAAAUAUU [Prohibition 49 - Jieux - Exclusion NG 1] (Eterna round: R96, puzzle: Exclusion NG 1) | 15.2 nM | 18 nM | – | apparent KD of MS2 coat protein [1]: 11.4 nM
33 | CGAUAAAGCUGAGGAUAUGAGAAUAGAAAGAAAUCAGAAGGCAGACAUGAGGAUCACCCAUGUGAGUUCUCGAGAUUAGAUAUU [Prohibition 47 - Jieux - Exclusion NG 1] (Eterna round: R96, puzzle: Exclusion NG 1) | – | – | – | apparent KD of MS2 coat protein [1]: 22.2 nM
34 | CGAUAUAACGUAGGAUAUCUGAGAAAUAGAUGAAGAGAAGGACGACAUGAGGAUCACCCAUGUGAUCUAUCAAUAUUAUACAUG [Prohibition 96 - Jieux - Exclusion NG 1] (Eterna round: R96, puzzle: Exclusion NG 1) | 722 nM | 604 nM | – | apparent KD of MS2 coat protein [1]: 694 nM
